Test results reported in article PMC6216019.
Where two headings read alike, the source gives them in different places.

Legend:
AcrB-CFP (E. coli) [1] = molecular target: AcrB-CFP (E. coli) (UniProt P31224); test: FRET or BRET
AcrB-CFP (E. coli) [2] = molecular target: AcrB-CFP (E. coli) (UniProt P31224); test: FRET or BRET; remark: listed apart in the source
AcrB_(P223G) (E. coli) = AcrB_(P223G) (E. coli) (UniProt P31224); test: native gel or EMSA
[3] = molecular target: AcrB_(P223G)-CFP (E. coli) (UniProt P31224); test: FRET or BRET
[4] = molecular target: AcrB_(P223G)-CFP (E. coli) (UniProt P31224); test: FRET or BRET; remark: listed apart in the source
[5] = molecular target: AcrB_(P223G/V225C/A777C) (E. coli) (UniProt P31224); test: cross-linking
[6] = molecular target: AcrB_(V225C/A777C) (E. coli) (UniProt P31224); test: cross-linking

AcrB-YPet (from UniProt P31224 1-1049) (natural protein)
FRET efficiency (AcrB-CFP (E. coli) [1]): 50% | FRET efficiency (AcrB-CFP (E. coli) [2]): 35%

AcrB_(P223G) (from UniProt P31224 1-1049) (natural protein)
stoichiometry N (AcrB_(P223G) (E. coli)): 3

AcrB_(P223G)-YPet (from UniProt P31224 1-1049) (natural protein)
FRET efficiency [3]: 22% | FRET efficiency [4]: 26%

AcrB_(P223G/V225C/A777C) (from UniProt P31224 1-1049) (natural protein)
stoichiometry N [5]: 3

AcrB_(V225C/A777C) (from UniProt P31224 1-1049) (natural protein)
stoichiometry N [6]: 3
